The values that follow come from patent US20200283478A1 (Genentech, published 2020).

First the molecules themselves.
B1: Compound 89 (WCLWNLKRIGSQCWF-NH2) (peptide)
peptide: WCLWNLKRIGSQCWF-NH2
modifications: disulfide 2-13; N-terminus assumed
SMILES: CC[C@H](C)[C@@H]1NC(=O)[C@H](CCCNC(=N)N)NC(=O)[C@H](CCCCN)NC(=O)[C@H](CC(C)C)NC(=O)[C@H](CC(N)=O)NC(=O)[C@H](Cc2c[nH]c3ccccc23)NC(=O)[C@H](CC(C)C)NC(=O)[C@@H](NC(=O)[C@@H](N)Cc2c[nH]c3ccccc23)CSSC[C@@H](C(=O)N[C@@H](Cc2c[nH]c3ccccc23)C(=O)N[C@@H](Cc2ccccc2)C(N)=O)NC(=O)[C@H](CCC(N)=O)NC(=O)[C@H](CO)NC(=O)CNC1=O
B2: Compound 87 (Ac-GCLWNLKRIGSQCWF-NH2) (peptide)
peptide: Ac-GCLWNLKRIGSQCWF-NH2
modifications: disulfide 2-13
SMILES: CC[C@H](C)[C@@H]1NC(=O)[C@H](CCCNC(=N)N)NC(=O)[C@H](CCCCN)NC(=O)[C@H](CC(C)C)NC(=O)[C@H](CC(N)=O)NC(=O)[C@H](Cc2c[nH]c3ccccc23)NC(=O)[C@H](CC(C)C)NC(=O)[C@@H](NC(=O)CNC(C)=O)CSSC[C@@H](C(=O)N[C@@H](Cc2c[nH]c3ccccc23)C(=O)N[C@@H](Cc2ccccc2)C(N)=O)NC(=O)[C@H](CCC(N)=O)NC(=O)[C@H](CO)NC(=O)CNC1=O
B3: Compound 95 (Ac-FCLWNLKRIGSQCEY-NH2) (peptide)
peptide: Ac-FCLWNLKRIGSQCEY-NH2
modifications: disulfide 2-13
SMILES: CC[C@H](C)[C@@H]1NC(=O)[C@H](CCCNC(=N)N)NC(=O)[C@H](CCCCN)NC(=O)[C@H](CC(C)C)NC(=O)[C@H](CC(N)=O)NC(=O)[C@H](Cc2c[nH]c3ccccc23)NC(=O)[C@H](CC(C)C)NC(=O)[C@@H](NC(=O)[C@H](Cc2ccccc2)NC(C)=O)CSSC[C@@H](C(=O)N[C@@H](CCC(=O)O)C(=O)N[C@@H](Cc2ccc(O)cc2)C(N)=O)NC(=O)[C@H](CCC(N)=O)NC(=O)[C@H](CO)NC(=O)CNC1=O
B4: Compound 88 (Ac-FCLWNLARIGSQCWF-NH2) (peptide)
peptide: Ac-FCLWNLARIGSQCWF-NH2
modifications: disulfide 2-13
SMILES: CC[C@H](C)[C@@H]1NC(=O)[C@H](CCCNC(=N)N)NC(=O)[C@H](C)NC(=O)[C@H](CC(C)C)NC(=O)[C@H](CC(N)=O)NC(=O)[C@H](Cc2c[nH]c3ccccc23)NC(=O)[C@H](CC(C)C)NC(=O)[C@@H](NC(=O)[C@H](Cc2ccccc2)NC(C)=O)CSSC[C@@H](C(=O)N[C@@H](Cc2c[nH]c3ccccc23)C(=O)N[C@@H](Cc2ccccc2)C(N)=O)NC(=O)[C@H](CCC(N)=O)NC(=O)[C@H](CO)NC(=O)CNC1=O
B5: Compound 39 (Ac-CWNLKRIGSQGCW-NH2) (peptide)
peptide: Ac-CWNLKRIGSQGCW-NH2
modifications: disulfide 1-12
SMILES: CC[C@H](C)[C@@H]1NC(=O)[C@H](CCCNC(=N)N)NC(=O)[C@H](CCCCN)NC(=O)[C@H](CC(C)C)NC(=O)[C@H](CC(N)=O)NC(=O)[C@H](Cc2c[nH]c3ccccc23)NC(=O)[C@@H](NC(C)=O)CSSC[C@@H](C(=O)N[C@@H](Cc2c[nH]c3ccccc23)C(N)=O)NC(=O)CNC(=O)[C@H](CCC(N)=O)NC(=O)[C@H](CO)NC(=O)CNC1=O
B6: Compound 98 (Fmoc-GSG-CWNLKRIGSQGC-NH2) (peptide)
peptide: Fmoc-GSGCWNLKRIGSQGC-NH2
modifications: disulfide 4-15
SMILES: CC[C@H](C)[C@@H]1NC(=O)[C@H](CCCNC(=N)N)NC(=O)[C@H](CCCCN)NC(=O)[C@H](CC(C)C)NC(=O)[C@H](CC(N)=O)NC(=O)[C@H](Cc2c[nH]c3ccccc23)NC(=O)[C@@H](NC(=O)CNC(=O)[C@H](CO)NC(=O)CNC(=O)OCC2c3ccccc3-c3ccccc32)CSSC[C@@H](C(N)=O)NC(=O)CNC(=O)[C@H](CCC(N)=O)NC(=O)[C@H](CO)NC(=O)CNC1=O
B7: Compound 66 (WCLWNLKRIGSQCWF) (peptide)
peptide: H-WCLWNLKRIGSQCWF-OH
modifications: disulfide 2-13
SMILES: CC[C@H](C)[C@@H]1NC(=O)[C@H](CCCNC(=N)N)NC(=O)[C@H](CCCCN)NC(=O)[C@H](CC(C)C)NC(=O)[C@H](CC(N)=O)NC(=O)[C@H](Cc2c[nH]c3ccccc23)NC(=O)[C@H](CC(C)C)NC(=O)[C@@H](NC(=O)[C@@H](N)Cc2c[nH]c3ccccc23)CSSC[C@@H](C(=O)N[C@@H](Cc2c[nH]c3ccccc23)C(=O)N[C@@H](Cc2ccccc2)C(=O)O)NC(=O)[C@H](CCC(N)=O)NC(=O)[C@H](CO)NC(=O)CNC1=O
B8: Compound 40 (Ac-GSG-CWNLKRIGSQGCW-NH2) (peptide)
peptide: Ac-GSGCWNLKRIGSQGCW-NH2
modifications: disulfide 4-15
SMILES: CC[C@H](C)[C@@H]1NC(=O)[C@H](CCCNC(=N)N)NC(=O)[C@H](CCCCN)NC(=O)[C@H](CC(C)C)NC(=O)[C@H](CC(N)=O)NC(=O)[C@H](Cc2c[nH]c3ccccc23)NC(=O)[C@@H](NC(=O)CNC(=O)[C@H](CO)NC(=O)CNC(C)=O)CSSC[C@@H](C(=O)N[C@@H](Cc2c[nH]c3ccccc23)C(N)=O)NC(=O)CNC(=O)[C@H](CCC(N)=O)NC(=O)[C@H](CO)NC(=O)CNC1=O

Bridge positions count the residues as written; N and C are the ends. Ends that are not written are not given here. * marks the point of attachment. Fmoc = O=C(OCC1c2ccccc2-c2ccccc21)* Bounds are passed on as bounds.

T2 sequence (Q8NBP7 31-692 limits assumed): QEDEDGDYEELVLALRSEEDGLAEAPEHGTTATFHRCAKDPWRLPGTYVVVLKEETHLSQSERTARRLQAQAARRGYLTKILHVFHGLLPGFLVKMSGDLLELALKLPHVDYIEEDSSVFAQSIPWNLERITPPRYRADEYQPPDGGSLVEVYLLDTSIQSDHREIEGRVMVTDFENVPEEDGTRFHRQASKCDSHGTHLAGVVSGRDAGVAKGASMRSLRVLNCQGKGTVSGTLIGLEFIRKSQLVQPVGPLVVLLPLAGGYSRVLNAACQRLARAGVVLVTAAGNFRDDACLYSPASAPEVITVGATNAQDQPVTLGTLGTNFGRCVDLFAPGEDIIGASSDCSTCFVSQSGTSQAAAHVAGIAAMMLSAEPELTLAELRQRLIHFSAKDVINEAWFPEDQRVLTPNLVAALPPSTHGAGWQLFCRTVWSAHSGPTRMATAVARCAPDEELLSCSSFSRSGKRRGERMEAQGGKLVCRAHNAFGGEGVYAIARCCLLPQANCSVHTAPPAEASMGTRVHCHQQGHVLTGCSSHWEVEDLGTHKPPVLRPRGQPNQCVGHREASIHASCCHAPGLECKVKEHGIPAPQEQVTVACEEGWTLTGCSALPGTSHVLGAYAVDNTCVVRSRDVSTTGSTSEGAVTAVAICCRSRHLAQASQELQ

The target of the first assay is T1, His-tagged PCSK9Δhelix (human, UniProt Q8NBP7 31-152; Q8NBP7 168-692).
T1 construct: Human PCSK9 M1-Q692 with an engineered TEV site, cut by TEV protease; new N-terminus of the catalytic domain is S-A168; also called His-PCSK9Δhelix; not shown: His tag
T1 sequence (Q8NBP7 31-152, stated change not applied, chain 1 of 2): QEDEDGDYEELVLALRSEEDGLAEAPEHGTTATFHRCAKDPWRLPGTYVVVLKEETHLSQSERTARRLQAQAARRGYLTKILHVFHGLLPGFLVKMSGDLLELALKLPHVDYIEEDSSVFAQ
T1 sequence (Q8NBP7 other isoform, or with tags, fused parts or gaps mutant, chain 2 of 2): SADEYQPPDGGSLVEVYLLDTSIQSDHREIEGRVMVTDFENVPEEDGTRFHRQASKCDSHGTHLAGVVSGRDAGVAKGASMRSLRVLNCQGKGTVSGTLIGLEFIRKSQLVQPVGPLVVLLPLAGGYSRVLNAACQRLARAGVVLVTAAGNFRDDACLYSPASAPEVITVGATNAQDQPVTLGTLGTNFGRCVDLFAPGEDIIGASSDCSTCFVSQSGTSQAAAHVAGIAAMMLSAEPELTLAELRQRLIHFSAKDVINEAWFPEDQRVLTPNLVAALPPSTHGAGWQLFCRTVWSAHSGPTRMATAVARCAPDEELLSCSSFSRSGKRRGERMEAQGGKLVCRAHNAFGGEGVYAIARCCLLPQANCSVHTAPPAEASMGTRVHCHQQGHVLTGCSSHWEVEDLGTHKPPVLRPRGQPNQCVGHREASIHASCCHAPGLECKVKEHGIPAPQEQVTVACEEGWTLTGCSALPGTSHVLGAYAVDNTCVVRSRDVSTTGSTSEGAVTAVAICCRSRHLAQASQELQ
In words: TR-FRET competition (PCSK9Δhelix/Ab20 assay); competitor Ab20. On the technique in general: TR-FRET usually uses a lanthanide donor and a delayed reading to cut background.
The IC50 is the concentration that inhibits the measured activity by half. High values mean a need for much substance, low ones inhibition by little substance. B1 gave a 50% inhibitory concentration (IC50) of 2.98 µM.
For the molecule B2, the IC50 was determined as 9.53 µM.
For B3, the IC50 was found to be 12.7 µM.
Molecule B4 yielded an IC50 of 7.46 µM.
For B5, the IC50 stood at 37.5 µM.
In turn, Ac-WCLWNLKRIGSQCWF (disulfide 2-13) [Compound 90 (Ac-WCLWNLKRIGSQCWF)] showed an IC50 of 7.38 µM.
Consider B6, for which the IC50 is 3.6 µM.
B7 displayed an IC50 of 12 µM.
B8: the IC50 is 2.41 µM.

The next assay has as its target T2, His-tagged, full-length PCSK9 (human, UniProt Q8NBP7 31-692).
T2 construct: secreted PCSK9 is autocatalytically cleaved into prodomain and catalytic domain + CRD (from S153), which stay associated; also called His-PCSK9; proprotein convertase subtilisin/kexin type 9; not shown: His tag
In words: TR-FRET competition (PCSK9/EGF(A) assay); competitor EGF(A)-Fc.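 Further: proximity signal from anti-His APC on PCSK9 paired with anti-Fc europium on the Fc ligand, read as normalized TR-FRET ratio across compound dilutions.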
With B1, the IC50 was found to be 6.9 µM.
Molecule B2 returned an IC50 greater than 50 µM.
Take B3: the IC50 was greater than 50 µM.
The molecule B4 gave an IC50 of 17.9 µM.
As for B5, the IC50 is greater than 50 µM.
For Ac-WCLWNLKRIGSQCWF (disulfide 2-13) [Compound 90 (Ac-WCLWNLKRIGSQCWF)], the IC50 was determined as 29.2 µM.
Still for that read-out and setting: next, B6: 37.6 µM; B7: 31.3 µM.
For the molecule B8, the IC50 came out at 5.96 µM.

Another assay deals with T3, PCSK9Δhelix (human, Chemically biotinylated in the phage ELISAs; the site is not given.).
T3 construct: construct M1-Q692 with engineered TEV site, cleaved by TEV; also called His-PCSK9Δhelix; open groove PCSK9Δhelix
T3 sequence (prodomain, as listed by the source mutant limits assumed, chain 1 of 2): as the sequence (Q8NBP7 31-152, stated change not applied, chain 1 of 2) above
T3 sequence (chain, as listed by the source mutant limits assumed, chain 2 of 2): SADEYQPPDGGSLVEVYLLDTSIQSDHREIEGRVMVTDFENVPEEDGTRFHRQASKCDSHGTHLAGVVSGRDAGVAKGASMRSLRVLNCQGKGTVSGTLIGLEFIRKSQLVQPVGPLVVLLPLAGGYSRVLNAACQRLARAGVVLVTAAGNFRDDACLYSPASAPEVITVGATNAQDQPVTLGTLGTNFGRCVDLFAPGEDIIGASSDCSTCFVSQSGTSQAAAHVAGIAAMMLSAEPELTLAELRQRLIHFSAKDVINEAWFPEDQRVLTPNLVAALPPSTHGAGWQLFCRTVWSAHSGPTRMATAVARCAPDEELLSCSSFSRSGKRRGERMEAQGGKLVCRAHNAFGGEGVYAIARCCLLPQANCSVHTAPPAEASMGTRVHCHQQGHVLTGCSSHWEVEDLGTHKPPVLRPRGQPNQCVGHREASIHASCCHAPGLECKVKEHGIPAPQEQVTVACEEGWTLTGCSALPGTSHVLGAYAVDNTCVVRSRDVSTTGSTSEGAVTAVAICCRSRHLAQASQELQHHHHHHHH
In words: phage spot ELISA. For orientation: An ELISA detects its analyte on a solid surface through an enzyme-linked reagent.
In turn, SGACLNHFVSGNMIRC [SEQ ID NO 371] displayed an ELISA of 0.649 and a s/n of 5.55.
The corresponding values for SGGCVKYRGSVSCQESKT [SEQ ID NO 369] are 0.378 and 3.37.
The like results for SGMVYVDRGVRVFT [SEQ ID NO 368] were, in that order, 1.01 and 10.2.
The molecule SGEHQFYSYRGVDVYR [SEQ ID NO 370] showed an ELISA of 0.461 and a s/n of 3.71.
Regarding SGNCWSSLRGICENLG [SEQ ID NO 367], the ELISA was determined as 0.601 and the s/n came to 5.2.
On to SGPRTYLRGLVD [SEQ ID NO 366], for which the ELISA was 0.375 and the s/n was determined as 3.44.

The target in another assay is T4, proprotein convertase subtilisin/kexin type 9 (PCSK9) (human, UniProt Q8NBP7 31-692).
T4 construct: His-tagged full-length PCSK9 in TR-FRET and SPR, biotinylated in phage ELISA; secreted protein is autoprocessed (prodomain plus catalytic/CRD chain starting at S153); also called rec.PCSK9; His-PCSK9
T4 sequence (Q8NBP7 other isoform, or with tags, fused parts or gaps limits assumed): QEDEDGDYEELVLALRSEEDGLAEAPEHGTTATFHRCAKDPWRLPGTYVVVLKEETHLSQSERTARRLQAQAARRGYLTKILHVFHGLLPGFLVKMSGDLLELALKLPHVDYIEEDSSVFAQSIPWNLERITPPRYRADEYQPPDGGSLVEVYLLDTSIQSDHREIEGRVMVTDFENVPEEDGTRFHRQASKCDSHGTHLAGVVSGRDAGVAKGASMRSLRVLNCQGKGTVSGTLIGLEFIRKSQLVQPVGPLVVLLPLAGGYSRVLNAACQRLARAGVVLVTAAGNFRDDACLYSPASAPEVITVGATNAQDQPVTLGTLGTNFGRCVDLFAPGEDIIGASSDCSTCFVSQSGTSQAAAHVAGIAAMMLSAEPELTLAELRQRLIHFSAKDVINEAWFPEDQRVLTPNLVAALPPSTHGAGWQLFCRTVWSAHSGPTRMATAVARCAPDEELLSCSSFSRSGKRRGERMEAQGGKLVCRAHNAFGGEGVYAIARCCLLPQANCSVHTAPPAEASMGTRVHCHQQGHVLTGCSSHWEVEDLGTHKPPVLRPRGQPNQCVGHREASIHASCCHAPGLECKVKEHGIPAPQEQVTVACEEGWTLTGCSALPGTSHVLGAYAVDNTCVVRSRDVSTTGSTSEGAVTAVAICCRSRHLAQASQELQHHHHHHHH
The assay can be described thus: phage spot ELISA.
SGACLNHFVSGNMIRC [SEQ ID NO 371] registered an ELISA of 0.607 and a s/n of 5.19.
The molecule SGGCVKYRGSVSCQESKT [SEQ ID NO 369] came in with an ELISA of 0.373 and a s/n of 3.32.
Take SGMVYVDRGVRVFT [SEQ ID NO 368]: the ELISA turned out to be 0.893 and the s/n is 8.5.
Consider SGVCSDHYIGGKEVRC [SEQ ID NO 378], for which the ELISA is 1.12 and the s/n stood at 6.19.
The like results for SGEHQFYSYRGVDVYR [SEQ ID NO 370] were, in that order, 0.458 and 1.45.
As to SGNCWSSLRGICENLG [SEQ ID NO 367], the ELISA turned out to be 0.609 and the s/n is 1.47.
The corresponding values for SGPRTYLRGLVD [SEQ ID NO 366] are 0.355 and 3.1.
